Consider 116 sequences from the supplement of paper PMC10724198.

± gives the standard deviation of the averaged measurements.
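Also: PSI is a weighted mean of sequencing reads over stability bins, variants kept only with over 10 reads, mCherry proximal and sfGFP distal, peptide attached via GGGS linker.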

For the series, the system named is Saccharomyces cerevisiae. Put plainly: protein stability index of tFT-peptide fusion (C-terminal peptide) (PSI (0-1 scale)); higher = more stable (slower turnover). Conditions: genetic background: wild type; temperature: 30 C. On the procedure:
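Multiplexed protein stability (MPS) profiling in S. cerevisiae. Random 12-aa peptides (tFT-X12 library) are fused to the C-terminus of a sfGFP-mCherry tandem fluorescent timer, after mCherry and a GGGS linker. Cells are FACS-sorted into 8 mCherry/sfGFP bins and deep-sequenced. The protein stability index (PSI) is the read-weighted bin average, scaled from 0 (unstable) to 1 (stable). Only peptides with >10 reads are reported; cells were grown at 30 °C in SC-His with glucose.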
With GGARESGRVEQV, the protein stability index came to 0.676 ± 0.011.

In the case of GGARPVWDPGFG, the protein stability index is 0.684 ± 0.0031.

Regarding GGCGGVWGACVV, the protein stability index came out at 0.709 ± 0.023.

As to GGCVTRYSSQRA, the protein stability index is 0.656 ± 0.041.

As for GGCVVGTGRRRY, the protein stability index turned out to be 0.6114 ± 0.0061.

GGDAGGVFSRLC: the protein stability index worked out at 0.632 ± 0.0096.

Turning to GGDGGSDHHRER, the protein stability index was 0.6856 ± 0.0044.

Take GGEGGRALGVGR: the protein stability index was 0.673 ± 0.028.

GGEGLRGAAWGI returned a protein stability index of 0.653 ± 0.12.

For GGEICPARECGA, the protein stability index was found to be 0.648 ± 0.042.

In the case of GGFGAVPEVRAR, the protein stability index came out at 0.725 ± 0.035.

The sequence GGFICRHGVGRG displayed a protein stability index of 0.708 ± 0.011.

The sequence GGFLMVSPMDWA came in with a protein stability index of 0.703 ± 0.026.

GGFTSIRLTHLS displayed a protein stability index of 0.698 ± 0.043.

GGGAFVGLDFGG displayed a protein stability index of 0.684 ± 0.0071.

GGGAGGAVRRAS had a protein stability index of 0.6932 ± 0.005.

In the case of GGGAGGGGRRGR, the protein stability index is 0.747 ± 0.01.

The sequence GGGAGRSWFVGC displayed a protein stability index of 0.711 ± 0.042.

With GGGARPTLDRAR, the protein stability index turned out to be 0.637 ± 0.028.

For GGGAWGGMCGVV, the protein stability index turned out to be 0.717 ± 0.047.

Turning to GGGDGIHRYAGG, the protein stability index was 0.7 ± 0.035.

With GGGERCEGVWVE, the protein stability index is 0.579 ± 0.01.

For GGGEWGLGVRPR, the protein stability index was determined as 0.725 ± 0.008.

GGGGEVARSAHR yielded a protein stability index of 0.6696 ± 0.0056.

Consider GGGGGERGRGGS, for which the protein stability index was determined as 0.708 ± 0.02.

Regarding GGGGGGLTGRVG, the protein stability index was 0.711 ± 0.009.

As to GGGGGSSWVGYG, the protein stability index is 0.8981 ± 0.0027.

GGGGGWGGGGGG displayed a protein stability index of 0.7 ± 0.087.

With GGGGHMGGRLVK, the protein stability index was found to be 0.692 ± 0.039.

GGGGKGTSGQGR had a protein stability index of 0.688 ± 0.017.

On to GGGGLDGYGGGG, for which the protein stability index came to 0.69 ± 0.029.

GGGGLGWWEWDR returned a protein stability index of 0.736 ± 0.071.

GGGGPGGLVGAA came in with a protein stability index of 0.662 ± 0.035.

In the case of GGGGSRRGVGDR, the protein stability index was determined as 0.687 ± 0.013.

On to GGGGTGTSGQGR, for which the protein stability index stood at 0.718 ± 0.046.

GGGIVGWFCRGR: the protein stability index worked out at 0.675 ± 0.068.

The sequence GGGLGGGGGVWG displayed a protein stability index of 0.7104 ± 0.004.

Take GGGLGGVRGGVR: the protein stability index stood at 0.628 ± 0.074.

GGGLMVARFGPS: the protein stability index was found to be 0.664 ± 0.037.

In turn, GGGLREARVLRG showed a protein stability index of 0.711 ± 0.015.

On to GGGLSGEGGLGR, for which the protein stability index stood at 0.639 ± 0.014.

In turn, GGGLWLYKKLVF gave a protein stability index of 0.682 ± 0.13.

Regarding GGGNEDCLRGGY, the protein stability index was found to be 0.651 ± 0.056.

As to GGGNGGTGCDWG, the protein stability index worked out at 0.629 ± 0.018.

For the sequence GGGPWGRVGRGG, the protein stability index was 0.679 ± 0.037.

For the sequence GGGRALEGAAGP, the protein stability index amounted to 0.583 ± 0.063.

GGGRGGGGGGDA returned a protein stability index of 0.697 ± 0.038.

Turning to GGGRGLRCNGLG, the protein stability index is 0.738 ± 0.1.

Sequence GGGRGNRGEKMT yielded a protein stability index of 0.67 ± 0.012.

Regarding GGGRGRAGVGVW, the protein stability index is 0.714 ± 0.05.

On to GGGVGASMSGTP, for which the protein stability index is 0.689 ± 0.0069.

GGGVGEWCLVRL gave a protein stability index of 0.6849 ± 4.4e-05.

GGGVWQWERGRG: the protein stability index was determined as 0.811 ± 0.14.

GGGWCSGYLAGV registered a protein stability index of 0.679 ± 0.056.

GGGWSRGGSGAG showed a protein stability index of 0.687 ± 0.011.

As for GGIPINVLPGCR, the protein stability index is 0.739 ± 0.15.

Sequence GGLGVGPGWWGP returned a protein stability index of 0.733 ± 0.043.

Turning to GGLGWGARQGAL, the protein stability index came to 0.68 ± 0.024.

With GGLICRHGGGRG, the protein stability index was found to be 0.706 ± 0.02.

Sequence GGLWAAAGKARV registered a protein stability index of 0.692 ± 0.026.

In turn, GGNDIIQNRKGK came in with a protein stability index of 0.674 ± 0.039.

For GGNGIVPVWMNF, the protein stability index worked out at 0.695 ± 0.041.

As for GGPAWGRVGMYW, the protein stability index stood at 0.666 ± 0.047.

GGPVGGGGGSGE had a protein stability index of 0.641 ± 0.032.

GGQGKWPGTPLL came in with a protein stability index of 0.738 ± 0.022.

As to GGRCGREGGAER, the protein stability index came to 0.61 ± 0.054.

Sequence GGRCWMCVAVTE yielded a protein stability index of 0.591 ± 0.019.

Turning to GGRGGATRRGSL, the protein stability index amounted to 0.764 ± 0.055.

Sequence GGRGGEVVLWQA showed a protein stability index of 0.726 ± 0.12.

For the sequence GGRGREGRPPGP, the protein stability index worked out at 0.641 ± 0.034.

Turning to GGRNGLGITGGE, the protein stability index was 0.648 ± 0.034.

With GGRRLKDAETWA, the protein stability index came to 0.615 ± 0.029.

With GGRRTEIYTGPA, the protein stability index is 0.703 ± 0.019.

GGRVWAGGYLGA registered a protein stability index of 0.707 ± 0.068.

Turning to GGRWGDSGMGVV, the protein stability index amounted to 0.715 ± 0.026.

The sequence GGSCGFGLGAGG had a protein stability index of 0.665 ± 0.041.

In turn, GGSDLLIGFWPC displayed a protein stability index of 0.716 ± 0.027.

GGSGPSGSPRRR: the protein stability index was determined as 0.727 ± 0.054.

The sequence GGSSLSSSSVIR returned a protein stability index of 0.675 ± 0.036.

In turn, GGSSWSLGGGGG displayed a protein stability index of 0.7406 ± 0.0023.

GGSWGVGGVFVR had a protein stability index of 0.658 ± 0.03.

Sequence GGTGFMHSVDYG displayed a protein stability index of 0.644 ± 0.0089.

GGTRCQYKNLFG had a protein stability index of 0.683 ± 0.029.

As for GGTSCLLSTAGD, the protein stability index was found to be 0.653 ± 0.079.

In turn, GGVEWEQQGRKE showed a protein stability index of 0.706 ± 0.072.

With GGVGGGVEPCFV, the protein stability index was determined as 0.66 ± 0.028.

Turning to GGVGGRGIGFPR, the protein stability index was found to be 0.684 ± 0.055.

In the case of GGVLGPEVCVGG, the protein stability index is 0.693 ± 0.047.

With GGVRGGAAEGAV, the protein stability index stood at 0.751 ± 0.076.

Take GGVRGRRLLGGR: the protein stability index was 0.7 ± 0.046.

GGVRGVRGRGVG had a protein stability index of 0.639 ± 0.049.

Turning to GGVRSLLWAVVW, the protein stability index worked out at 0.583 ± 0.009.

Consider GGVSVPSERFRS, for which the protein stability index is 0.788 ± 0.044.

Turning to GGVWFSCSSAFS, the protein stability index is 0.871 ± 0.075.

On to GGWDLIASVREF, for which the protein stability index was found to be 0.649 ± 0.017.

For the sequence GGWGGRGQGWYR, the protein stability index came out at 0.6673 ± 0.0055.

The sequence GGWGRRRLDGGR gave a protein stability index of 0.7221 ± 0.0064.

Take GGWWWAVGFGGL: the protein stability index is 0.66 ± 0.017.

GGYGEGAVLFVG returned a protein stability index of 0.58 ± 0.012.

GHAITSALITHR had a protein stability index of 0.652 ± 0.024.

In the case of GHKIIPPSTRFR, the protein stability index worked out at 0.626 ± 0.063.

The sequence GHSRSTFPWLVI showed a protein stability index of 0.79 ± 0.095.

Consider GIAACASSGLAV, for which the protein stability index came to 0.657 ± 0.034.

In turn, GIENTYVVIFID returned a protein stability index of 0.598 ± 0.068.

Sequence GIGEGRDGFVVV came in with a protein stability index of 0.67 ± 0.058.

Sequence GIGVVVLGGCTR registered a protein stability index of 0.706 ± 0.056.

Take GIHLAPVCASSP: the protein stability index was 0.71 ± 0.035.

In turn, GIIQKAQTSIKI showed a protein stability index of 0.592 ± 0.0067.

Consider GIKAIEKGDIHL, for which the protein stability index stood at 0.699 ± 0.021.

In turn, GILFFPSGGISP registered a protein stability index of 0.805 ± 0.12.

GILRSDAVWSFI had a protein stability index of 0.699 ± 0.042.

GILSPSSLVSSL returned a protein stability index of 0.69 ± 0.057.

Turning to GITHSFLRSSVV, the protein stability index came to 0.689 ± 0.054.

In turn, GITWSYNKSISH showed a protein stability index of 0.722 ± 0.048.

Take GIVRGCGGGGEE: the protein stability index was determined as 0.6922 ± 0.0049.

As for GIVVEELIFCGR, the protein stability index was found to be 0.63 ± 0.0087.
